The values below come from PMC5670239, “Structural basis for mutually exclusive co-transcriptional nuclear cap-binding complexes with either NELF-E or ARS2” (Nature Communications, 2017).

In experiment [1] the target is T1, CBC (Homo sapiens, UniProt P52298).
T1 sequence (P52298 1-156): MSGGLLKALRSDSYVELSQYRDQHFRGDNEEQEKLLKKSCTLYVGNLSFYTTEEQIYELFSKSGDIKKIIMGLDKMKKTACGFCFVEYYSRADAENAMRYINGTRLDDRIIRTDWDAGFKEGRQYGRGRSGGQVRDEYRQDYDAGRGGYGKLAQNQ
T1 sequence (Q09161 20-790 partner): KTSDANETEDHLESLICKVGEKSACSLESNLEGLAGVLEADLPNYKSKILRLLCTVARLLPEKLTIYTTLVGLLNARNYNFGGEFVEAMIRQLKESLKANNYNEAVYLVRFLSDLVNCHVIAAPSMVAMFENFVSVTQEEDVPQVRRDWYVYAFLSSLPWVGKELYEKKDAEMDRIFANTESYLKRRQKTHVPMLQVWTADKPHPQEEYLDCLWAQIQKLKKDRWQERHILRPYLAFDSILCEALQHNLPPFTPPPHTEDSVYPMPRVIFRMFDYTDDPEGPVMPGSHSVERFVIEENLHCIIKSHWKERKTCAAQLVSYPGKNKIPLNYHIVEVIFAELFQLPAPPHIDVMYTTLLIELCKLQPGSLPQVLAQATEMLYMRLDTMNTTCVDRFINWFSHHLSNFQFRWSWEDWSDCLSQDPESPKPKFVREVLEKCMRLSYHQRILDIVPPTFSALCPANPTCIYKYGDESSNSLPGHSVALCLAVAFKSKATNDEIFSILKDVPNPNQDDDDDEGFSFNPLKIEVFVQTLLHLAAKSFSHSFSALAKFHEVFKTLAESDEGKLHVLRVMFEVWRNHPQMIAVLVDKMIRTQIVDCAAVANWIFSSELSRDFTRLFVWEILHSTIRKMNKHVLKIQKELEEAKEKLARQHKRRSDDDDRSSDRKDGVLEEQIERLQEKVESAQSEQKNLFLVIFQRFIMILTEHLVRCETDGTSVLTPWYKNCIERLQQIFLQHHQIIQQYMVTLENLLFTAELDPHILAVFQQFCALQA
Kind of experiment: ITC, binding to CBC without cap analogue. The following applies: ITC (MicroCal ITC200), 25 °C, 20 mM HEPES, 120 mM NaCl, 2 mM TCEP, pH 7.8, single-site fit; no cap analogue pre-bound; mean ± SD of at least two independent experiments; SD. The text has this: (§1) hARS2 isoform-4 (871 residues, UniProt:Q9BXP5-4, also known as isoform-e, NP_001122326) constructs (residues 147–871, 147–845, 763–871, 763–845, 827–871) hNELF-E (NM_002904.5) (244–380, 244–360) and hPHAX (NM_032177.3) (1–394, 103–294, 103–308, 103–327) were cloned into pETM11 (EMBL). Full-length hNELF-E (1–380) was cloned into pFASTBac and CBP20 into pETM30. Primers used are given in Supplementary Table 2. All constructs were expressed in E. coli Rosetta 2 (Novagen), except full-length NELF-E and CBP80ΔNLS (CBP80 with residues 1–19 deleted[2]), which were expressed in High Five insect cells (Life Technology). Cells were harvested and lysed by sonication in lysis buffer containing 50 mM HEPES, pH 7.8, 300 mM NaCl, 10% (v/v) glycerol, 5 mM β-mercaptoethanol. Lysates were clarified by centrifugation and applied on an equilibrated Ni-sepharose column (GE Healthcare), washed with 20 mM imidazole in lysis buffer, and eluted with 300 mM imidazole in lysis buffer. While dialysing into 20 mM HEPES, pH 7.8, 120 mM NaCl, 10% (v/v) glycerol, 5 mM β-mercaptoethanol, the N-terminal 6-histidine-tag was cleaved with His-tagged Tobacco Etch Virus (TEV) protease overnight in a ratio 1:100 mg TEV per mg protein. The cleaved protein was further purified first on Ni-sepharose to remove TEV and then using an anion exchange column (HiTrap Q, GE Healthcare) followed if necessary by a Heparin column (GE Healthcare). In both cases a NaCl gradient from 50 to 800 mM in 20 mM HEPES 7.8, 0.5 mM tris(2-carboxyethyl)phosphine was used. To reconstitute the CBC heterodimer, cleared His-tagged CBP20 lysate was first immobilised on a Ni-sepharose column. After washing the column with lysis buffer, the cleared CBP80 lysate was applied to the column and further purification steps performed as described above. To remove the access of CBP20 the flow through of the Ni-column after TEV cleavage was loaded on an anion exchange column (HiTrap Q, GE Healthcare) and CBC eluted by a NaCl gradient as described above. In the text we refer to CBP80ΔNLS and CBP80ΔNLS-CBP20 as CBP80 and CBC, respectively. ARS2^845–871, NELF-E^354–380, and NELF-E^360–380 peptides, with or without FAM label at the N-terminus, were purchased from GenScript.

Experiment [2] deals with T2, m^7GTP-CBC (Homo sapiens, UniProt P52298+Q09161).
T2 construct: 6-histidine tag (pETM30 vector) (N, cleaved yes); made in house; host or cells: CBP20 in E. coli Rosetta 2; CBP80ΔNLS in High Five insect cells; heterodimer reconstituted on Ni-sepharose
T2 sequence (Q09161 20-790): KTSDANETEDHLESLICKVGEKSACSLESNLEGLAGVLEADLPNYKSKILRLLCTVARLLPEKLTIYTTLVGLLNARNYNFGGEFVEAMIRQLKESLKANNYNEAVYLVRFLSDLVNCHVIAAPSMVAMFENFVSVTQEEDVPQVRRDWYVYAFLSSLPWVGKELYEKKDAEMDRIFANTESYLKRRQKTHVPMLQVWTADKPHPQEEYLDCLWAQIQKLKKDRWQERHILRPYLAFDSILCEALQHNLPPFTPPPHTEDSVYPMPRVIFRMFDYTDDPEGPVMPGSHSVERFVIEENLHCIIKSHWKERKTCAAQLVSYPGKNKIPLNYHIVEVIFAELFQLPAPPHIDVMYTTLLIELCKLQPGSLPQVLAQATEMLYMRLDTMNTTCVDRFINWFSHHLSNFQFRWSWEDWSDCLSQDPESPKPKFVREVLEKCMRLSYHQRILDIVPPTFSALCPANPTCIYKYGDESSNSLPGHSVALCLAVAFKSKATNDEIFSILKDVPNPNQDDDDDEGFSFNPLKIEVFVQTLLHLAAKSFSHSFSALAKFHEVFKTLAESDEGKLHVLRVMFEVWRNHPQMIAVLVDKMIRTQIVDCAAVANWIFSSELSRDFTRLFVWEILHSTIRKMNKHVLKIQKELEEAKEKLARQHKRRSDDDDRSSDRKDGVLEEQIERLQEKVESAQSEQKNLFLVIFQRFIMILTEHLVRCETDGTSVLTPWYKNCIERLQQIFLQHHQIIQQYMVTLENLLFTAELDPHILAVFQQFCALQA
T2 sequence (P52298 1-156): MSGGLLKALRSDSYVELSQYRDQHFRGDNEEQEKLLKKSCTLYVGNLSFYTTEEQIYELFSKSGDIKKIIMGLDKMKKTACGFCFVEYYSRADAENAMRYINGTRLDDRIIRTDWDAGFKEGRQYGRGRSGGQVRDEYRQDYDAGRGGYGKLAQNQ
The experiment in a line: ITC, binding to CBC in the presence of the cap analogue m^7GTP. The following applies: for Kd: ITC, 25 °C, 20 mM HEPES, 120 mM NaCl, 2 mM TCEP, pH 7.8, CBC bound to m^7GTP, mean ± SD of at least two independent experiments.
Source text: as §1
(In ITC the heat of successive injections is recorded.)

For experiment [3], the target named is m^7GTP-CBCmut. The experiment in a line: ITC, binding to mutated CBC in the presence of m^7GTP. On the set-up: species or system human. The following applies: 25 °C, pH 7.8, CBCmut = CBP20 Y50A + CBP80 Y461A/R610E/H651A, with m^7GTP, mean ± SD of 2 experiments.
Description: For CBC, a triple mutant in CBP80 (Y461A/R610E/H651A) was combined with various mutations in CBP20 (Y50A, Y50A/Y89A, or Y50A/Y89A/D107R).
ITC experiments were performed on a MicroCal ITC200 system (Malvern). Proteins were dialyzed overnight in buffer 20 mM HEPES, 120 mM NaCl, 2 mM tris(2-carboxyethyl)phosphine, pH 7.8. Injections of 1.5 µl protein A were added at an interval of 120–180 s into 205 µl of protein B in the cell, with a stirring speed of 800 rpm at 25 °C. The experimental data were analysed with MicroCal ITC Origin and were fitted to a single-site binding equation.
For experiment [4], the target named is T2, m^7GTP-CBC. Kind of experiment: Fluorescence polarisation with FAM-labelled C-terminal peptides. The class given is binding. The following applies: competition; 40 nM FAM peptide, 60 nM CBC, 25 µM m^7GTP, 25 °C; n = 3. The method, then:
Fig. 4 Incompatibility of ARS2-PHAX and NELF-E binding to CBC. a, b Competition on m^7GTP-sepharose. a In separate experiments, different amounts of ARS2^147–871 were added to preformed CBC–NELF–E complex immobilised on m^7GTP-sepharose. […] The fluorophore FAM is represented with a star. Note that different constructs of NELF-E and ARS2 were used in c, d, and e compared to f, g, and h and are therefore represented by slightly different shapes. Error bars show the SD of three experiments
Fluorescence anisotropy binding assays were performed with N-terminal FAM-labelled ARS2^845–871 and […] peptides. 40 nM peptides were titrated with increasing concentrations of proteins in 20 mM HEPES, pH 7.8, 120 mM NaCl, 2 mM tris(2-carboxyethyl)phosphine. For the competition assay CBC–ARS2 and CBC–NELF–E complexes were preformed in the presence of 25 µM m^7GTP using 40 nM ARS2^827–871(FAM) peptide together with 60 nM CBC and 40 nM NELF-E^354–380(FAM) peptide with 1 µM CBC. […] To observe a change in polarisation at reasonable protein concentrations, CBC and NELF-E^244–380 concentrations that saturate half of the FAM-labelled peptides were used to preform the individual complexes. Fluorescence polarisation was measured at 25 °C with a microplate reader (CLARIOstar BMG LABTECH) using an excitation wavelength of 495 nm and emission wavelength of 515 nm. For analysis the polarisation value for the peptide alone was subtracted from the measurements.
(Fluorescence polarisation rises when a labelled molecule tumbles more slowly, as on binding a larger partner.)

B1: NELF-E 244–380: C-terminal human NELF-E fragment including the RRM domain, E. coli expressed (protein, UniProt P18615 244-380, looked up, fragment)
chain: GPFRRSDSFPERRAPRKGNTLYVYGEDMTPTLLRGAFSPFGNIIDLSMDPPRNCAFVTYEKMESADQAVAELNGTQVESVQLKVNIARKQPMLDAATGKSVWGSLAVQNSPKGCHRDKRTQIVYSDDVYKENLVDGF
In general, Kd refers to the concentration at which binding is half-saturated. On to B1, for which the Kd is 400 ± 200 nM in experiment [1], roughly 40 nM in experiment [2] and 50 ± 10 nM in experiment [2] (SD). The “Enhancement of the interaction with CBC when m^7GTP is bound” value in experiment [2] (ratio of ITC K D without / with m^7GTP) is listed as “eight times higher”. Moreover, the “K D” value in experiment [3] is given as “completely abolished binding”. Moreover, the “Change of polarisation on titration to m^7GTP-CBC-ARS2^845–871(FAM)” value in experiment [4] is “decrease in polarisation”.
